In publication PMC6591361, “Recombinant production of human α2-macroglobulin variants and interaction studies with recombinant G-related α2-macroglobulin binding protein and latent transforming growth factor-β2” (Scientific Reports, 2019):

How the values were obtained:
[1] = biological target: N-terminal part of human α2-macroglobulin (N-hα2M) (human) (UniProt P01023); assay: not stated; apparent mass of the purified hα2M fragments without reducing agents; method not named
[2] = biological target: the molecule itself; assay: SEC; Superose 6 10/300 (full-length recombinant hα2M) or Superdex 75 10/300 (pro-TGF-β2), buffer D (20 mM Tris-HCl, 150 mM sodium chloride, pH 7.5)

Molecule | stoichiometry N [1] | stoichiometry N [2]
N-terminal part of human α2-macroglobulin (N-hα2M) (from UniProt P01023 24-788) (domain or fragment) | 2 | –
Strep-tagged latent human transforming growth factor-β2 (pro-TGF-β2) (natural protein, residues from the construct between the tag and L21; human pro-TGF-β2 (LAP plus mature TGF-β2), UniProt P61812, residues L21-S414; The purified protein was partially cleaved before A303 by host peptidases; also called Strep-tagged pro-TGF-β2; pS6-TGFB2-STREP; not shown: Strep-tag, N-terminal, kept) LSLSTCSTLDMDQFMRKRIEAIRGQILSKLKLTSPPEDYPEPEEVPPEVISIYNSTRDLLQEKASRRAAACERERSDEEYYAKEVYKIDMPPFFPSENAIPPTFYRPYFRIVRFDVSAMEKNASNLVKAEFRVFRLQNPKARVPEQRIELYQILKSKDLTSPTQRYIDSKVVKTRAEGEWLSFDVTDAVHEWLHHKDRNLGFKISLHCPCCTFVPSNNYIIPNKSEELEARFAGIDGTSTYTSGDQKTIKSTRKKNSGKTPHLLLMLLPSYRLESQQTNRRKKRALDAAYCFRNVQDNCCLRPLYIDFKRDLGWKWIHEPKGYNANFCAGACPYLWSSDTQHSRVLSLYNTINPEASASPCCVSQDLEPLTILYYIGKTPKIEQLSNMIVKSCKCS | – | 2
N-terminally octahistidine-tagged latent human transforming growth factor-β2 (pro-TGF-β2) (natural protein, residues from the construct between the tag and L21; human pro-TGF-β2 (LAP plus mature TGF-β2), UniProt P61812, residues L21-S414; Partially cleaved before A303 by host peptidases; also called N-terminally His6-tagged pro-TGF-β2; pS6-TGFB2-H8; not shown: His8, N-terminal, kept) LSLSTCSTLDMDQFMRKRIEAIRGQILSKLKLTSPPEDYPEPEEVPPEVISIYNSTRDLLQEKASRRAAACERERSDEEYYAKEVYKIDMPPFFPSENAIPPTFYRPYFRIVRFDVSAMEKNASNLVKAEFRVFRLQNPKARVPEQRIELYQILKSKDLTSPTQRYIDSKVVKTRAEGEWLSFDVTDAVHEWLHHKDRNLGFKISLHCPCCTFVPSNNYIIPNKSEELEARFAGIDGTSTYTSGDQKTIKSTRKKNSGKTPHLLLMLLPSYRLESQQTNRRKKRALDAAYCFRNVQDNCCLRPLYIDFKRDLGWKWIHEPKGYNANFCAGACPYLWSSDTQHSRVLSLYNTINPEASASPCCVSQDLEPLTILYYIGKTPKIEQLSNMIVKSCKCS | – | 2
